Laboratory results from patent US20220119451A1 (published 2022).
Positions of bridges follow the written chain, without caps; N, C: chain ends. No end group written: not given here.

What was measured:
[1] = molecular target: mouse PD-L1 protein (G&P Biosciences, cat #FCL3502B) (mouse) (UniProt Q9EP73); experiment: ELISA, blocking of mouse PD-1 binding to mouse PD-L1 protein, 10 µM
bovine serum albumin [2] = molecular target: T1, bovine serum albumin (bovine, UniProt P02769 25-607); experiment: SPR, BSA immobilised
T1 construct: Specificity control in SPR; also called BSA
T1 sequence (P02769 25-607 limits assumed): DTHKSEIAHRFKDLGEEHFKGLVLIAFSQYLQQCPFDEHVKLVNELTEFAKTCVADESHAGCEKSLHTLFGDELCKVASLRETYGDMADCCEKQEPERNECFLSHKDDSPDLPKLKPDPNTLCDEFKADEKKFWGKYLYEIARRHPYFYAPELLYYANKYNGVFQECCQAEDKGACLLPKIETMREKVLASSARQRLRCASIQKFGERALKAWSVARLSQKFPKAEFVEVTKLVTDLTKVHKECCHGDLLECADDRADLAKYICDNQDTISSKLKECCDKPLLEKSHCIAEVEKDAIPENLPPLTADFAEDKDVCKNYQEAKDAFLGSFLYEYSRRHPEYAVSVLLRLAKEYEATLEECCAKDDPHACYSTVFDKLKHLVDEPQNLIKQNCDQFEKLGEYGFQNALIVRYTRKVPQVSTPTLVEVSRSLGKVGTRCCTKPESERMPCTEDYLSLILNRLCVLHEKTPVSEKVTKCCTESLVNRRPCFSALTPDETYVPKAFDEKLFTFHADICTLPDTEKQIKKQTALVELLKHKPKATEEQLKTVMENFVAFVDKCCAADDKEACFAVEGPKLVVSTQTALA

[3] = molecular target: T2, recombinant human PD-L1 extracellular domain (ECD) protein (cat #FCL0784B, G&P Biosciences) (human, UniProt Q9NZQ7 19-238); experiment: SPR, PD-L1 immobilised
T2 construct: extracellular domain; Bought protein; also called hPD-L1 protein; human PD-L1 protein
T2 sequence (Q9NZQ7 19-238): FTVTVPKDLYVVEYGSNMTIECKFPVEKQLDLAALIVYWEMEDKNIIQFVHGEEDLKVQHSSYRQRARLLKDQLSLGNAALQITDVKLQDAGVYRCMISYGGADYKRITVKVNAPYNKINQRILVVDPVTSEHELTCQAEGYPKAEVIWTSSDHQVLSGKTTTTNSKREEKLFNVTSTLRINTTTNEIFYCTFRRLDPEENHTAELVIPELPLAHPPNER
Method: (§1) Evaluation of Binding Kinetics and Affinity By Surface Plasmon Resonance (SPR). […] PD-L1 protein was diluted to 10 μg/mL with sodium acetate buffer (pH 5.0, GE Healthcare, PA) and covalently coated onto a CM5 sensor chip (CM Dextran Sensor Chip, Biosensing Instrument) using the standard Amine Coupling Kit (GE Healthcare, PA). Approximately 6500 RU of PD-L1 protein were immobilized onto the chip. A second channel was used as a reference. HBS-EP+ buffer (GE Healthcare) was employed at a flow rate of 60 μL/min. […] The CM5 sensor chip was regenerated with 10 mM NaOH for 20 seconds. The results were analyzed using the software of Bi data analysis software.

[4] = molecular target: T3, recombinant human PD-L1 protein (Acro Biosystems, cat #EP-101 assay pair) (human, UniProt Q9NZQ7 19-238); experiment: ELISA, blocking of biotinylated human PD-1 binding to coated human PD-L1, 10 µM
T3 construct: Bought protein; construct not described; also called hPD-L1; human PD-L1 (AcroBiosystems, cat #EP-101)
T3 sequence (Q9NZQ7 19-238 limits assumed): as the sequence (Q9NZQ7 19-238) above
Method: (§2) Unbound protein was removed by washing twice with PBS (pH 7.2-7.4), 2% BSA was added for 1.5 h at 37° C. to block the plate. Specific concentrations of the peptides were dispensed into the appropriate wells and incubated for 2 h at 37° C. […] This was followed by the addition of streptavidin-HRP and chromogenic substrate (R&D systems). The color reaction was terminated with 2N H₂SO₄, absorbance was recorded at OD450 and referenced to OD540.
(§3) In this Example, various properties of the peptides of SEQ ID NO:5, SEQ ID NO:6 and SEQ ID NO:7 were evaluated. The procedures for generating these values are described above in the beginning of the Examples section.

[5] = molecular target: T2, recombinant human PD-L1 extracellular …; experiment: PD1/PD-L1 blocking assay of Table 5 (format not stated), 10 µM
[6] = molecular target: T2, recombinant human PD-L1 extracellular …; experiment: ELISA, blocking of PD-1 binding to coated human PD-L1 protein
Method: (§4) Various concentrations of peptides were loaded into the wells and incubated for 1 hour at room temperature. […] Streptavidin-HRP (R&D systems) and chromogenic substrate were added into the wells. OD₄₅₀ was then recorded and referenced to OD₅₄₀.

bovine serum albumin [7] = molecular target: T1, bovine serum albumin; experiment: SPR, albumin (BSA) immobilised, peptide series injected
Method: as §1
Nonspecific binding of the peptides against bovine serum albumin (BSA) using SPR was measured. […] MCF-7 human cancer cells are PD-L1 deficient and used as a negative control in this study. […] Results are represented as the mean±SD (n=3).

[8] = molecular target: T4, mouse PD-L1 on 4T1 cancer cells (mouse, UniProt Q9EP73 19-290); experiment: blocking of mouse PD-1 binding to 4T1 cells
T4 construct: whole, on cells; also called mouse cancer cell line 4T1
T4 sequence (Q9EP73 19-290): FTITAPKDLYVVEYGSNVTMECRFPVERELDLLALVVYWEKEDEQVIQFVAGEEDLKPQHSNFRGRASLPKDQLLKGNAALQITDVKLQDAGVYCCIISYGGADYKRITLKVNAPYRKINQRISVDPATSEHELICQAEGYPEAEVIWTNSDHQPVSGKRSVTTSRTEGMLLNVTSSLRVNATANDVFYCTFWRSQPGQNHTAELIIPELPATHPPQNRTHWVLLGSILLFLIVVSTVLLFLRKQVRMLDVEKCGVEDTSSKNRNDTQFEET

[9] = molecular target: T2, recombinant human PD-L1 extracellular …; experiment: SPR, human PD-L1 ECD immobilised on CM5 chip
Method: as §1
The PD-L1 protein was immobilized on a CM5 golden chip by the direct amine coupling method. […] In a recent study, scientists constructed several chimeric antigen receptor (CAR) T cells with different affinities to ICAM-1.

[10] = molecular target: T5, human PD-L1 on DU-145 cancer cells (human, UniProt Q9NZQ7 19-290); experiment: blocking of PD-1 binding to DU-145 cells
T5 construct: whole, on cells; Endogenous PD-L1 of a PD-L1-positive human cancer cell line
T5 sequence (Q9NZQ7 19-290): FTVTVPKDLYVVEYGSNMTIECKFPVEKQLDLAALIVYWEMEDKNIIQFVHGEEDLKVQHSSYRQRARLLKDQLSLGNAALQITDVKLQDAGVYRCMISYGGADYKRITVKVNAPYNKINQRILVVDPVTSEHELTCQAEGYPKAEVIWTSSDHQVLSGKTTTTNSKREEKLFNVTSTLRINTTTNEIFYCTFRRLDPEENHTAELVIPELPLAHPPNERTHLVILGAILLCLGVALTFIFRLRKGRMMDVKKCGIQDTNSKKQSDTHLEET

[11] = molecular target: T2, recombinant human PD-L1 extracellular …; experiment: blocking of the human CD80/PD-L1 interaction, 10 µM
[12] = molecular target: T6, mouse PD-L1 protein (G&P Biosciences, cat #FCL3502B) (mouse, UniProt Q9EP73 19-239, limits assumed); experiment: ELISA, blocking of mouse PD-1 binding to coated mouse PD-L1 protein
T6 construct: Bought protein; construct not described; also called mPD-L1 protein
T6 sequence (Q9EP73 19-239 limits assumed): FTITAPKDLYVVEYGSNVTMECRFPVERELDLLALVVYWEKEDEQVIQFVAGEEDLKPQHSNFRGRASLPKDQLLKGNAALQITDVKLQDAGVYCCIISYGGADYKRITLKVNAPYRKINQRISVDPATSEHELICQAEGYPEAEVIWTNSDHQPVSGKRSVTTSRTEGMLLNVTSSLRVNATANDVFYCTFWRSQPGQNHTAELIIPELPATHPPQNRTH
Method: as §4

[13] = molecular target: T2, recombinant human PD-L1 extracellular …; experiment: PD1/PD-L1 blocking assay of Table 5 (format not stated)
[14] = molecular target: T7, mouse PD-L1 (Acro Biosystems, cat #PD1-M5220) (mouse, UniProt Q9EP73 19-238); experiment: ELISA, blocking of biotinylated mouse PD-1 binding to coated mouse PD-L1
T7 construct: Bought protein; construct not described; also called mPD-L1
T7 sequence (Q9EP73 19-238 limits assumed): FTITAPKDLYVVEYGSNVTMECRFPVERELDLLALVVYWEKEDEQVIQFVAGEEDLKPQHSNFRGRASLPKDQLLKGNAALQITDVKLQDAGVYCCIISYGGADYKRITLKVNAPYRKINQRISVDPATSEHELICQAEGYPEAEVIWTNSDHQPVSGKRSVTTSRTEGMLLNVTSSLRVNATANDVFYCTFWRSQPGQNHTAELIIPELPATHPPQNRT
Method: as §2, §3

[15] = molecular target: T3, recombinant human PD-L1 protein (Acro …); experiment: ELISA, blocking of biotinylated human PD-1 binding to coated human PD-L1
Method: as §2

[16] = molecular target: T3, recombinant human PD-L1 protein (Acro …); experiment: competitive SPR, peptide preincubated with human PD-L1, injected over immobilised PD-1
Method: BI-4500A SPR and a CM-5 sensor chip pre-functionalized with streptavidin (Biosensing Instrument Inc., Tempe, Ariz.) were employed for the SPR analysis. […] Data was analyzed with SPR Data Analysis Version 3.8.4 (Biosensing Instrument Inc., Tempe, Ariz.).
as §3

[17] = molecular target: T6, mouse PD-L1 protein (G&P Biosciences, …); experiment: blocking of the mouse PD-1/PD-L1 interaction (text value, differs from Table 3); text of paragraph 79, not Table 3
Method: as §4

[18] = molecular target: T2, recombinant human PD-L1 extracellular …; experiment: blocking of the human CD80/PD-L1 interaction

Chain of mouse PD-L1 protein (G&P Biosciences, cat #FCL3502B) (mouse) (Q9EP73 19-239 limits assumed): as the sequence (Q9EP73 19-239 limits assumed) above

## anti-mouse PD-L1 antibody (BioXcell, 10F.9G2)
[1]
  blocking efficiency at 10 µM: 92%

## WHRSYYTWN (Truncated form of CLP002 (9 residues)) [CLP2TR3]
Bovine serum albumin [2]
  Kd: 2050 nM
[3]
  Kd: 258 nM
[4]
  % Blocking efficiency at 10 µM (ELISA) hPD-L1: 80%
[5]
  % Blocking efficiency at 10 µM: 80%

## DYHDPSLPTLRK (not fully specified, 12-mer from phage display) [CLP004 peptide]
[6]
  Blocking Efficiency (%): 52%
  IC50: 1170 nM
Bovine serum albumin [7]
  binding result: no binding
[8]
  Blocking Efficiency (%): 34%
  IC50: 730 nM
[9]
  Kd: 544 nM
  koff: 0.00275 s⁻¹
  kon: 5140 M⁻¹ s⁻¹
[10]
  Blocking Efficiency (%): 60%
  IC50: 200 nM
[11]
  blocking efficiency at 10 µM: ~27%
[12]
  Blocking Efficiency (%): 48%
  IC50: 1910 nM

## CHRSYYCWNLNT (disulfide 1-7, Cyclic variant of CLP002) [CLP2C21]
Bovine serum albumin [2]
  Kd: 1240 nM
[3]
  Kd: 124 nM
[13]
  IC50: 6 nM
[14]
  IC50: 460 nM
[15]
  IC50: 440 nM
[4]
  % Blocking efficiency at 10 µM (ELISA) hPD-L1: 85.9%
[16]
  IC50: 143 nM
[5]
  % Blocking efficiency at 10 µM: 78%

## CHRSYYTWNLNC (disulfide 1-12, Cyclic variant of CLP002) [CLP2C14]
Bovine serum albumin [2]
  Kd: 408 nM
[3]
  Kd: 2.78 nM
[13]
  IC50: 5 nM
[14]
  IC50: 550 nM
[15]
  IC50: 180 nM
[4]
  % Blocking efficiency at 10 µM (ELISA) hPD-L1: 75%
[16]
  IC50: 119 nM
[5]
  % Blocking efficiency at 10 µM: 75%

## HYPFRPHANQAS (not fully specified, 12-mer from phage display) [CLP001 peptide]
[6]
  Blocking Efficiency (%): 0%
Bovine serum albumin [7]
  binding result: no binding
[8]
  Blocking Efficiency (%): 35%
  IC50: 910 nM
[9]
  Kd: 534 nM
  koff: 0.00281 s⁻¹
  kon: 5190 M⁻¹ s⁻¹
[10]
  Blocking Efficiency (%): 0%
[11]
  blocking efficiency at 10 µM: ~17%
[12]
  Blocking Efficiency (%): 34%
  IC50: 2430 nM

## WHFSYNWRWLPP (not fully specified, 12-mer from phage display) [CLP003 peptide]
[6]
  Blocking Efficiency (%): 60%
  IC50: 2220 nM
Bovine serum albumin [7]
  binding result: no binding
[8]
  Blocking Efficiency (%): 50%
  IC50: 1000 nM
[9]
  Kd: 117 nM
  koff: 0.00162 s⁻¹
  kon: 22600 M⁻¹ s⁻¹
[17]
  IC50: 1960 nM
[18]
  IC50: 1620 nM
[10]
  Blocking Efficiency (%): 56%
  IC50: 3050 nM
[11]
  blocking efficiency at 10 µM: ~48%
[12]
  Blocking Efficiency (%): 46%
  IC50: 2260 nM

## WHRSYYTWNLNT (not fully specified, 12-mer from phage display) [CLP002 peptide]
[6]
  Blocking Efficiency (%): 85%
  IC50: 2170 nM
Bovine serum albumin [7]
  binding result: no binding
[8]
  Blocking Efficiency (%): 61%
  IC50: 2440 nM
[9]
  Kd: 366 nM
  koff: 0.00145 s⁻¹
  kon: 4520 M⁻¹ s⁻¹
[17]
  IC50: 1510 nM
[18]
  IC50: 2450 nM
[10]
  Blocking Efficiency (%): 80%
  IC50: 1430 nM
[11]
  blocking efficiency at 10 µM: ~48%
[12]
  Blocking Efficiency (%): 68%
  IC50: 1910 nM
